Patent US20180155451A1 (published 2018)

B1: GpH7-B3 variant S337_04F/GpL16-k0 (antibody, human IgG1, kappa)
heavy: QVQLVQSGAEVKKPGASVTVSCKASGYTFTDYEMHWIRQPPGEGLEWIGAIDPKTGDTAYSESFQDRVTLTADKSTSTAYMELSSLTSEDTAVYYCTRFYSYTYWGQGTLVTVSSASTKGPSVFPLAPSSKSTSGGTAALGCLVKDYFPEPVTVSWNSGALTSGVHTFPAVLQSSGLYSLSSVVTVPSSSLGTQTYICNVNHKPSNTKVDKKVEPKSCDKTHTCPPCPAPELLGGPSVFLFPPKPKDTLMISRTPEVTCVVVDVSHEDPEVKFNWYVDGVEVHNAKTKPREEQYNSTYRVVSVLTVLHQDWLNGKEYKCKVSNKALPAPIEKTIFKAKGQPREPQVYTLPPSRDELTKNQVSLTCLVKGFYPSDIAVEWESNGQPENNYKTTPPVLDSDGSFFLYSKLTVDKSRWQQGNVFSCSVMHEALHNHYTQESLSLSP
light: DIVMTQSPLSLPVTPGEPASISCQASESLVHSNRNTYLHWYLQKPGQSPQLLIYKVSNRFSGVPDRFSGSGSGTDFTLKISRVEAEDVGVYYCSQNTHVPPTFGQGTKVEIERTVAAPSVFIFPPSDEQLKSGTASVVCLLNNFYPREAKVQWKVDNALQSGNSQESVTEQDSKDSTYSLSSTLTLSKADYEKHKVYACEVTHQGLSSPVTKSFNRGEC
notes: also called Ho Ab S337_04F
B2: GpH7-B3 variant A330_07I/GpL16-k0 (antibody, human IgG1, kappa)
heavy: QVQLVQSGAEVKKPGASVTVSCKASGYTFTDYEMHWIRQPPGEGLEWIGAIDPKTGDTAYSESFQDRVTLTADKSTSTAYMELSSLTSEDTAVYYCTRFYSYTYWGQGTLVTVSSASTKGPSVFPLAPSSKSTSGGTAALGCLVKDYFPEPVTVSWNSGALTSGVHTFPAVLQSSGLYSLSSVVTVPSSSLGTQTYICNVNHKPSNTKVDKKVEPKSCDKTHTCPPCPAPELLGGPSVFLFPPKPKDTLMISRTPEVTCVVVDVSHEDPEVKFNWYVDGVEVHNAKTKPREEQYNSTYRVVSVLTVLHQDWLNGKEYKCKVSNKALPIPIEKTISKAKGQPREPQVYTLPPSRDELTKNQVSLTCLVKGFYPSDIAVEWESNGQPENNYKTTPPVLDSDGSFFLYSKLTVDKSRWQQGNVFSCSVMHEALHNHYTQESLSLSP
light: B1 light
notes: also called Ho Ab A330_07I
B3: GpH7-B3 variant E333_03V/GpL16-k0 (antibody, human IgG1, kappa)
heavy: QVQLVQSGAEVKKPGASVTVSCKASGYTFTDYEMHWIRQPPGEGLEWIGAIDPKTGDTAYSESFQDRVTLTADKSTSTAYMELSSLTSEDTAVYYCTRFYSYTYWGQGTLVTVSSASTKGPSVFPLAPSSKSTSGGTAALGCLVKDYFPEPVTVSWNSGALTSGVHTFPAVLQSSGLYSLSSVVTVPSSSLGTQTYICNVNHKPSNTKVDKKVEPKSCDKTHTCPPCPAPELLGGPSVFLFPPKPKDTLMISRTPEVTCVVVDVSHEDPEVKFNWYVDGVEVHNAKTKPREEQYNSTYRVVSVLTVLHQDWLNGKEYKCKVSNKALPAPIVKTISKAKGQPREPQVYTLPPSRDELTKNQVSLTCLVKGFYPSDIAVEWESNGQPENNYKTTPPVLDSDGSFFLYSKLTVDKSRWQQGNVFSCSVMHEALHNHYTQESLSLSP
light: B1 light
notes: also called Ho Ab E333_03V
B4: GpH7-B3 variant E333_02A/GpL16-k0 (antibody, human IgG1, kappa)
heavy: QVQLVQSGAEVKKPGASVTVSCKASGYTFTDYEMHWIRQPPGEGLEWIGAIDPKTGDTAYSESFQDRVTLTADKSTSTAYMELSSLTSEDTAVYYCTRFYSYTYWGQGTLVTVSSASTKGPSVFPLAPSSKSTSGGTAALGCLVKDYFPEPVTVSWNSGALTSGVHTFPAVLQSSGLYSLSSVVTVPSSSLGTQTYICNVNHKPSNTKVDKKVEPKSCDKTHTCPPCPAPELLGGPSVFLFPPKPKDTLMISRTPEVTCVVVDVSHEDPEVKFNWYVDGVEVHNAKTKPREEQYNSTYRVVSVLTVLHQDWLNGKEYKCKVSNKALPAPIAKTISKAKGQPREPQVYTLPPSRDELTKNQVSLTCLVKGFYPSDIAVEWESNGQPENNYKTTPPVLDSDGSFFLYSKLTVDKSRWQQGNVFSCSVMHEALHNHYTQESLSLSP
light: B1 light
notes: also called Ho Ab E333_02A
B5: GpH7-B3 variant A330_05P/GpL16-k0 (antibody, human IgG1, kappa)
heavy: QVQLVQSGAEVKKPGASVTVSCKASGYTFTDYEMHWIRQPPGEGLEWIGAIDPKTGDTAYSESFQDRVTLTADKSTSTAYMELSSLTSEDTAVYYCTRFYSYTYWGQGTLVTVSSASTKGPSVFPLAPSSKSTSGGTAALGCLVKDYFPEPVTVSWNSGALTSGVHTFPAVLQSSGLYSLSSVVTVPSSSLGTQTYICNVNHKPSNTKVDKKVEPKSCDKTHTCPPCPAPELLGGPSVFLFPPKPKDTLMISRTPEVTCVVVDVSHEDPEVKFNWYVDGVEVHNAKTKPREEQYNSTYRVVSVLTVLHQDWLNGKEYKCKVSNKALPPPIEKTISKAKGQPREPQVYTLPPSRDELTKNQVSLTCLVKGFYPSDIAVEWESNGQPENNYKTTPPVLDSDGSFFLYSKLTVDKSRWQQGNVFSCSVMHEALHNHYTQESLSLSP
light: B1 light
notes: also called Ho Ab A330_05P
B6: GpH7-A5/GpH7-B3 variant S298_09D/GpL16-k0 (antibody, human IgG1, kappa)
heavy 1: not shown
heavy 2: not shown
light: B1 light
notes: heterodimerized antibody, mutation in one H chain only; also called S298_09D He Ab
B7: GpH7-A5/GpH7-B3 variant T335_13S/GpL16-k0 (antibody, human IgG1, kappa)
heavy 1: not shown
heavy 2: not shown
light: B1 light
notes: heterodimerized antibody, mutation in one H chain only; also called T335_13S He Ab
B8: GpH7-A5/GpH7-B3 variant S267_19Q/GpL16-k0 (antibody, human IgG1, kappa)
heavy 1: not shown
heavy 2: not shown
light: B1 light
notes: heterodimerized antibody, mutation in one H chain only; also called S267_19Q He Ab
B9: GpH7-A5/GpH7-B3 variant P271_08L/GpL16-k0 (antibody, human IgG1, kappa)
heavy 1: not shown
heavy 2: not shown
light: B1 light
notes: heterodimerized antibody, mutation in one H chain only; also called P271_08L He Ab
B10: GpH7-A5/GpH7-B3 variant S267_18N/GpL16-k0 (antibody, human IgG1, kappa)
heavy 1: not shown
heavy 2: not shown
light: B1 light
notes: heterodimerized antibody, mutation in one H chain only; also called S267_18N He Ab
B11: GpH7-A5/GpH7-B3 variant K334_05P/GpL16-k0 (antibody, human IgG1, kappa)
heavy 1: not shown
heavy 2: not shown
light: B1 light
notes: heterodimerized antibody, mutation in one H chain only; also called K334_05P He Ab
B12: GpH7-A5/GpH7-B3 variant K334_04F/GpL16-k0 (antibody, human IgG1, kappa)
heavy 1: not shown
heavy 2: not shown
light: B1 light
notes: heterodimerized antibody, mutation in one H chain only; also called K334_04F He Ab
B13: GpH7-A5/GpH7-B3 variant K334_09D/GpL16-k0 (antibody, human IgG1, kappa)
heavy 1: not shown
heavy 2: not shown
light: B1 light
notes: heterodimerized antibody, mutation in one H chain only; also called K334_09D He Ab
B14: GpH7-A5/GpH7-B3 variant S337_16H/GpL16-k0 (antibody, human IgG1, kappa)
heavy 1: not shown
heavy 2: not shown
light: B1 light
notes: heterodimerized antibody, mutation in one H chain only; also called S337_16H He Ab
B15: GpH7-A5/GpH7-B3 variant K326_06M/GpL16-k0 (antibody, human IgG1, kappa)
heavy 1: not shown
heavy 2: not shown
light: B1 light
notes: heterodimerized antibody, mutation in one H chain only; also called K326_06M He Ab
B16: GpH7-A5/GpH7-B3 variant S267_14T/GpL16-k0 (antibody, human IgG1, kappa)
heavy 1: not shown
heavy 2: not shown
light: B1 light
notes: heterodimerized antibody, mutation in one H chain only; also called S267_14T He Ab
B17: GpH7-A5/GpH7-B3 variant K326_08L/GpL16-k0 (antibody, human IgG1, kappa)
heavy 1: not shown
heavy 2: not shown
light: B1 light
notes: heterodimerized antibody, mutation in one H chain only; also called K326_08L He Ab
B18: GpH7-A5/GpH7-B3 variant P271_19Q/GpL16-k0 (antibody, human IgG1, kappa)
heavy 1: not shown
heavy 2: not shown
light: B1 light
notes: heterodimerized antibody, mutation in one H chain only; also called P271_19Q He Ab
B19: GpH7-A5/GpH7-B3 variant K326_09D/GpL16-k0 (antibody, human IgG1, kappa)
heavy 1: not shown
heavy 2: not shown
light: B1 light
notes: heterodimerized antibody, mutation in one H chain only; also called K326_09D He Ab
B20: GpH7-A5/GpH7-B3 variant S267_10E/GpL16-k0 (antibody, human IgG1, kappa)
heavy 1: not shown
heavy 2: not shown
light: B1 light
notes: heterodimerized antibody, mutation in one H chain only; also called S267_10E He Ab
B21: GpH7-A5/GpH7-B3 variant K326_19Q/GpL16-k0 (antibody, human IgG1, kappa)
heavy 1: not shown
heavy 2: not shown
light: B1 light
notes: heterodimerized antibody, mutation in one H chain only; also called K326_19Q He Ab
B22: GpH7-A5/GpH7-B3 variant K334_07I/GpL16-k0 (antibody, human IgG1, kappa)
heavy 1: not shown
heavy 2: not shown
light: B1 light
notes: heterodimerized antibody, mutation in one H chain only; also called K334_07I He Ab
B23: GpH7-A5/GpH7-B3 variant K334_03V/GpL16-k0 (antibody, human IgG1, kappa)
heavy 1: not shown
heavy 2: not shown
light: B1 light
notes: heterodimerized antibody, mutation in one H chain only; also called K334_03V He Ab
B24: GpH7-A5/GpH7-B3 variant K326_20W/GpL16-k0 (antibody, human IgG1, kappa)
heavy 1: not shown
heavy 2: not shown
light: B1 light
notes: heterodimerized antibody, mutation in one H chain only; also called K326_20W He Ab
B25: GpH7-A5/GpH7-B3 variant K334_16H/GpL16-k0 (antibody, human IgG1, kappa)
heavy 1: not shown
heavy 2: not shown
light: B1 light
notes: heterodimerized antibody, mutation in one H chain only; also called K334_16H He Ab
B26: GpH7-A5/GpH7-B3 variant K334_08L/GpL16-k0 (antibody, human IgG1, kappa)
heavy 1: not shown
heavy 2: not shown
light: B1 light
notes: heterodimerized antibody, mutation in one H chain only; also called K334_08L He Ab
B27: GpH7-A5/GpH7-B3 variant S337_18N/GpL16-k0 (antibody, human IgG1, kappa)
heavy 1: not shown
heavy 2: not shown
light: B1 light
notes: heterodimerized antibody, mutation in one H chain only; also called S337_18N He Ab
B28: GpH7-A5/GpH7-B3 variant T335_02A/GpL16-k0 (antibody, human IgG1, kappa)
heavy 1: not shown
heavy 2: not shown
light: B1 light
notes: heterodimerized antibody, mutation in one H chain only; also called T335_02A He Ab

molecular target: T1, FcγRIIIa extracellular domain with C-terminal His tag (human, UniProt P08637 17-208); assay: SPR relative binding; GpH7-B3/GpL16-k0 = 100
T1 construct: extracellular domain; also called FcgRIIIa; 3a; not shown: His tag at the C terminus
Procedure: Analysis of interaction between objective antibody and the FcγR was carried out using Biacore T100 (GE Healthcare). HBS-EP+ (GE Healthcare) was used as the running buffer, and the measurement temperature was set to 25° C. Chips produced by immobilizing the antigen peptide by the amine coupling method to a Series S Sencor Chip CM5 (GE Healthcare), or alternatively, chips produced by allowing preliminarily biotinylated antigen peptides to interact with and immobilize onto a Series S Sensor Chip SA (certified) (GE Healthcare) were used. Antibodies of interest were captured onto an antigen peptide-immobilized chip, and allowed to interact to each FcγR diluted with running buffer. To regenerate and repeatedly use the chip, the antibodies captured on the chip were washed off by reacting 10 mM glycine-HCl, pH 1.5.
The FcγR-binding activity of each antibody was assessed primarily using as an indicator the FcγR-binding activity and dissociation constant for FcγR.

T1 sequence (P08637 17-208): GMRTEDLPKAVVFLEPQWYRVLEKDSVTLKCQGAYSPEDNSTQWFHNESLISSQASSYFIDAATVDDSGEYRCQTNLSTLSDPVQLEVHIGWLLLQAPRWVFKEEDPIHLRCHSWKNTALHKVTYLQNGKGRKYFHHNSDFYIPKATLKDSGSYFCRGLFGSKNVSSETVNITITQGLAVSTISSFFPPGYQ

Row | Ho/Con_3a | Binder
1 | 95.6 % of control | B1
2 | 93 % of control | B2
3 | 86.5 % of control | B3
4 | 93.3 % of control | B4
5 | 56.6 % of control | B5

molecular target: T2, FcγRIa extracellular domain with C-terminal His tag (human, UniProt P12314 16-292); assay: SPR (Biacore), relative FcγRIa binding, GpH7-A5/GpH7-B3/GpL16-k0 (HeCon Ab) = 100
T2 construct: extracellular domain; soluble analyte in Biacore; also called FcgRI; CD64
T2 sequence (P12314 16-292): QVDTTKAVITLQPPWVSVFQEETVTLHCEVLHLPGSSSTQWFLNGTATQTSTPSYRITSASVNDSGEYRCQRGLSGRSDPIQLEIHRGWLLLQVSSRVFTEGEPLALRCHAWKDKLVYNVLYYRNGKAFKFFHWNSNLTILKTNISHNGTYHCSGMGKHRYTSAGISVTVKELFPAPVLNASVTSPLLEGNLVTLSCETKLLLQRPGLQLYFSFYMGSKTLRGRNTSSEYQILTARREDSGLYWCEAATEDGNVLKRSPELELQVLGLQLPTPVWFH

Row | He/Con_1a | Binder
6 | 106 % of control | B6
7 | 105 % of control | B7
8 | 102 % of control | B8
9 | 102 % of control | B9
10 | 102 % of control | B10
11 | 104 % of control | B11
12 | 105 % of control | B12
13 | 106 % of control | B13
14 | 105 % of control | B14
15 | 102 % of control | B15
16 | 102 % of control | B16
17 | 100 % of control | B17
18 | 103 % of control | B18
19 | 103 % of control | B19
20 | 106 % of control | B20
21 | 102 % of control | B21
22 | 104 % of control | B22
23 | 105 % of control | B23
24 | 103 % of control | B24
25 | 105 % of control | B25
26 | 105 % of control | B26
27 | 105 % of control | B27
28 | 103 % of control | B28
